In publication doi:10.1101/2022.08.26.505362:

What was measured:
[1] = molecular target: fibrillin (molecule within bovine ciliary zonule microfibrils) (bovine (endogenous in ciliary zonule)) (UniProt P98133); assay: cryo-EM structure; conditions: scale: fibrillin monomers per microfibril repeat
[2] = molecular target: fibrillin microfibrils purified from bovine ciliary zonules (bovine (endogenous in ciliary zonule)) (UniProt P98133); assay: STEM mass mapping; conditions: scale: molecules of LTBP-1 per microfibril repeat
Chain of fibrillin microfibrils purified from bovine ciliary zonules (bovine (endogenous in ciliary zonule)) (P98133 25-2871): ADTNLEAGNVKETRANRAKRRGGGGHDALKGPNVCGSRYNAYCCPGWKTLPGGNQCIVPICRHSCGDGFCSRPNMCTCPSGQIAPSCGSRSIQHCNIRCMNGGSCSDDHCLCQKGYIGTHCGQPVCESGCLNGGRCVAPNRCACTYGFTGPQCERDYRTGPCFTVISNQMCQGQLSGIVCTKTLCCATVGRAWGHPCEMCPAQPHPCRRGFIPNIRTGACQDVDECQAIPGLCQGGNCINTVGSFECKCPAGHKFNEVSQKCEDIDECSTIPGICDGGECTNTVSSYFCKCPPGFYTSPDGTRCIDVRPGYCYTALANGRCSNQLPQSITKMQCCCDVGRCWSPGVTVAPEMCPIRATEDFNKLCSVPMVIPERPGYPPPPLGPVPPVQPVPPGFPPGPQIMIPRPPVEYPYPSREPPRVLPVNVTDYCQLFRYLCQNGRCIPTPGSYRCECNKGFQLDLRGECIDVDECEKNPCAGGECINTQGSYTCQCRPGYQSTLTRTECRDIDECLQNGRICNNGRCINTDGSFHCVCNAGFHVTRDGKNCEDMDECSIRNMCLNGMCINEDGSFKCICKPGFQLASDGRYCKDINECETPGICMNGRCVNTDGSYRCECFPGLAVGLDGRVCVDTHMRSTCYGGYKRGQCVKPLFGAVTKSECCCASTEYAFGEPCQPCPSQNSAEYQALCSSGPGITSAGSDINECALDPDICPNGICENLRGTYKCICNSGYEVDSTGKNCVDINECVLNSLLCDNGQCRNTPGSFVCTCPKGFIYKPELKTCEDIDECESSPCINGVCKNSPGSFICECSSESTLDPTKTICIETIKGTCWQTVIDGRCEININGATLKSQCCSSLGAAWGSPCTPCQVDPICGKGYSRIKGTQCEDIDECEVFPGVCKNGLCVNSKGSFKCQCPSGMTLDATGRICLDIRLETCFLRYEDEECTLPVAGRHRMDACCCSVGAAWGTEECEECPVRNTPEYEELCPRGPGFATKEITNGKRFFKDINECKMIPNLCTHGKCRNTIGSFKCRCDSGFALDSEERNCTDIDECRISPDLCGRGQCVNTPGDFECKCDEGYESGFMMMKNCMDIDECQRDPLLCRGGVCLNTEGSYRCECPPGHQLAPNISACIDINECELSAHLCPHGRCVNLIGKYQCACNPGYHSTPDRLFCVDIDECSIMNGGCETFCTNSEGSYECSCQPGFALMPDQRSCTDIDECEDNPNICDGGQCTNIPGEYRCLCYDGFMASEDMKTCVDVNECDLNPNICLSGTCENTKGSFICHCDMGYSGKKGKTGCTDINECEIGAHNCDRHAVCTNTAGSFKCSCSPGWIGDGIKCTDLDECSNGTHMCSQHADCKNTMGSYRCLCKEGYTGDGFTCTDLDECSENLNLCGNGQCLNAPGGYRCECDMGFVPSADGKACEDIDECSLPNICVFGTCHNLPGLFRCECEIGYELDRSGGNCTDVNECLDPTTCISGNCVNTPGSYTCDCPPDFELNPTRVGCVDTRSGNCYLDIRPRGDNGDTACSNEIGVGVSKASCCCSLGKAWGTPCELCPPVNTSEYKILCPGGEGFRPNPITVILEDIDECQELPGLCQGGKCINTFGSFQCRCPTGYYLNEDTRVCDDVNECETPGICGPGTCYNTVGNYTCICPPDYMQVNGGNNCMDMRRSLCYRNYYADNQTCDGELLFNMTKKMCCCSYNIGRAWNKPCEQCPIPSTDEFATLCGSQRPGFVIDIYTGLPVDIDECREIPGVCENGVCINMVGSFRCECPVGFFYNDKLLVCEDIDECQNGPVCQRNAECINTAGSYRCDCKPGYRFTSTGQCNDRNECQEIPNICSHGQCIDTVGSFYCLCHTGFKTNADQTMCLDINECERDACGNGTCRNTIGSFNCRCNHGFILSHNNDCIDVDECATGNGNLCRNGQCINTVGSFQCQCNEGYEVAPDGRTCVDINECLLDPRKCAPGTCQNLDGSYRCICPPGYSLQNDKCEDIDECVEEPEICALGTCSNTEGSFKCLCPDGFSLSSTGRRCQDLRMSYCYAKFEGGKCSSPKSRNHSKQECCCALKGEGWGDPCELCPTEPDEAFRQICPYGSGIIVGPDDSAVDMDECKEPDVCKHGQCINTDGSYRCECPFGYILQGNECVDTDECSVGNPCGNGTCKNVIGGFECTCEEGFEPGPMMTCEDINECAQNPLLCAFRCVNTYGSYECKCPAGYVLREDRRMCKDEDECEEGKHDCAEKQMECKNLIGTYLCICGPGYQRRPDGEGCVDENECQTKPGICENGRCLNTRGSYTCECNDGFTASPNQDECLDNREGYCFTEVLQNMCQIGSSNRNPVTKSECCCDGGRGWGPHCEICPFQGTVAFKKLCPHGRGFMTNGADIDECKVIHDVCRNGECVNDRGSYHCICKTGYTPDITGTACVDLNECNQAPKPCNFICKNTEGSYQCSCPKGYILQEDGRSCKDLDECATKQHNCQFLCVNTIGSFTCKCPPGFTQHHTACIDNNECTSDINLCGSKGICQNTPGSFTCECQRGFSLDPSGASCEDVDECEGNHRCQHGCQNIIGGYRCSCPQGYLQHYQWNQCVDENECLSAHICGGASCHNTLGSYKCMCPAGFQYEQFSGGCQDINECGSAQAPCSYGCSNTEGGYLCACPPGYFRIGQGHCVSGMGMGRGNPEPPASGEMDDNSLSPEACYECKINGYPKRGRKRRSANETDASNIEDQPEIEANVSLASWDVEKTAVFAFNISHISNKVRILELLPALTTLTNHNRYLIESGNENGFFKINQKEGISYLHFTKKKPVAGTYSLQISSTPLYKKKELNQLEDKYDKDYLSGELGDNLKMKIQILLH

Chain of fibrillin (molecule within bovine ciliary zonule microfibrils) (P98133 25-2871): as above

Substance	stoichiometry N [1]	stoichiometry N [2]
fibrillin (molecule within bovine ciliary zonule microfibrils) (from UniProt P98133 25-2871) (natural protein)	8	–
full-length LTBP-1 (latent TGFβ-binding protein-1) (from UniProt Q14766 24-1721) (natural protein)	–	2
